{"source": "paper PMC8503589", "about": "(The Journal of Biological Chemistry, 2021)", "molecules": {"B1": {"name": "C. exile ODC (Caldisericum exile AZM16c01) (protein)", "chain": "MEQERAPLYEAVSKYIKRKMIPFHMPGHSQGKGAPKILKRLFGDKFFDFDLTEVSGLDYLHYAQGVIREAENLASSLYGTEATIFLVNGTTAGVHAMILDSVRENEKIIIGRNSHRSVIGGILLAKAKPVFVQPEFNEEFGIITNVTPESIKKAITENPDAKAVLVTTPNYYGLQGRIKDIIDIVHENGMRALVDEAHGAHFPFNSKFPKSAIYLGADLVTQSAHKTLPTLTQTSFLHIPSKDVNVDRIEQILSIIESSSPSYIFMTALDVARREMALHGKEMWDKAIEVAEYARERISALDGFKVITDKTINGKDVYAFDPIKLTINVQELGYSGFEFEHILNKNGIEIELADLQNVLLFITIGTSKRDIDTLVSVLKRIEPRKEKSTVRMPKLPEAPSFAMLPFEAFQREFEVVPLRETKGRVSWGIVAPYPPGIPVLAPGMIIDEECIEFTQEVFEKGGLVQGSIRYGSEIAIRVVKGE"}, "B2": {"name": "L. ferroxidans LDC (Leptospirillum ferrooxidans C2-3) (protein)", "chain": "MTPYDHNRTPLFDAMVALAESRKVSFHTPGHKSGKGISTRFRKFVGPKVFSIDLTCLDEVDSLQKPRGVIREAQELAADIYGADQSFFLVNGTSGGNQAMILSVMKPGEPILLTRILHKSVVSGLIMTDCKPIFIPLQSTPDCDLLLNDRTDTIIQAMNRHPEAKKLFLTSPNYYGVTLDLPTIIQEAHSRGVTVLVDEAHGPHLHFHDDLPPSAMASNADLCVQSTHKIIGGMTQASILHAKKANIDIERLTSVLRYLQTTSPSYILMASLDLARMQMATEGKKLLSKAIDLARKARERIRKIPGLTCIDRDEVKAASGGDNDLDETKLAIGVKGIGLTGYQVSQKLNHEFGIQVEMADLHHVLVIVSIGDHREDLDRLVRAMEAISHQAMTLKSIIPINVKPPYAIASSRMNPREAFFSSHQSVPLEEALGKTAADIVTVYPPGIPLLIPGEEITQTVLDHLILMRETGATLDGLDSDNRLINIV"}, "B3": {"name": "Psychrilyobacter sp. S5 ADC (Psychrilyobacter piezotolerans) (protein)", "chain": "MQNKTPLFDALKNYHKTDIVSFDVPGHKKRFQNEFSDYVGHKIIELDTNSMKELDILNNPTGVIREAHQLMADAYSADEAFFLVNGTTSGIQTMVMSACNPGDKIILPRNVHKSAINALILSGATPVYIDPEVDETLGISLGISVEKIKEALIKDPDIKAVFIINPTYYGAVSDLEEIIKICHEKNMVVLVDEAHGAHFPFHEKFPKNAMALGADMSAVSIHKTGGSLTQSSVLFLNHRRIKQERVKNMLNLTQTTSASYLLMTSLDVARKTLVTQGDEIFNDLLEMISKFREELNSIPGIRCFKSILSDKLYDFDDTKIGINLHGLGLTGFEGYDILREKYNIQMELADTHNILGIASIGDTWEDYQKLIDALKEMAENYEGNNQLIDFNELESLELVVSPRDAFYSETESIPLSEAIGKVSGESIMVYPPGIPLLIQGERITKDLIDHIYFLKEQKAVITGMNDKTLNNISILKGEHR"}, "B4": {"name": "H. thermocellum ADC (aADC) (Acetivibrio thermocellus ATCC 27405) (protein)", "chain": "MVLRMNQLKTPVFDAVKRYVESNVIQFHVPGHKQGAGLEELREYIGETALKMDANGMEDLDFANNPTGVIYESEMLAAQAFGAQHAYFLVNGTTSGVQAMIMSACEPGDKIILPRNAHKSTIGGIILSGAVPVYVQPEINEKLGIAMGITVESLKKAIKENPHAKAVFIINPTYYGIASDLKSLVRIAHRYEMAVLVDEAHGAHMSFHDDFPLTAMEVGADMSAVSTHKTGGSLTQSSLLLLRGNMISPERVKQVLNLTYTSSASYLLMCSLDIARKQLATKGSDMLEETLRLARMAREEINKIEGLYAFGKELIGTPGCHDFDETKLGICVSGLGYTGYEMEAKLRKEYNIQIEMSDLSNILAIVSIGDREENLVALINALKDIAAKTEKKEYPKPPIIPPTPKMIVSPRDAFYSPKKIVPLDKSVGEISGEMVMAYPPGIPVVCMGERITQDIVDYIKILKEQKTQLQGTADPYIDHIMVLGVD"}, "B5": {"name": "M. blatticola ADC (Methanimicrococcus blatticola) (protein)", "chain": "MDQNATPIIDALREFDQKNITSYDVPGHKRGIREDDFQKLVGKEVYLMDVNSPVGMDTFAHPKGVIKHSLELAAEAYKADNAFYLVNGSSSGVQIMIMTVCYDGEKILIPRNAHKSVTNSLILSGAVPVFMEPEINQNFAIASGMTLKTIQKYVEANPDAKALFLVYPTYYGACADLEQIIEYAHSKDIVVMVDQAHGAHFSFSSALPKSAAELGADLVVASTHKTGGSLTQSAMLLHNEGLVKYHSIKKRVLMFHTTSPSYLLMASLESSRKLLATQGEEIFHELVHECRKVKKEISKIPGLSVLDENEGVTTMTYDPTKIVINVTKLGLDGFDVYDIMFEKYGIQMELAEPTIVLAVIGIGDTKETIWRLVDAFRDLSDTYYGKYEMLDIPEEIVYVPPQILSPRQAFYADKVSVKIGEAVGRVAAEAVMIYPPGIPICIPGELITAETIEEILYCQENSDCVQKDSKEKDHILVVDDSTE"}}, "key": {"[1]": {"tested_on": "F. necrophorum ODC (aODC)", "details": "50 mM HEPES pH 7.7, 100 mM NaCl, 20 μM PLP, 1 mM DTT, 26 °C"}, "C. botulinum ODC (aODC)": {"tested_on": "T1, C. botulinum ODC (aODC)", "T1 construct": "gene CLI_3176"}, "B. cihuensis ADC": {"tested_on": "T2, B. cihuensis ADC", "T2 construct": "gene aADC", "details": "50 mM HEPES pH 7.7, 100 mM NaCl, 20 μM PLP, 1 mM DTT, 26 °C"}, "purified protein [2]": {"substrate": "N=C(N)NCCC[C@H](N)C(=O)O", "test": "purified protein", "details": "50 mM HEPES pH 7.7, 100 mM NaCl, 20 μM PLP, 1 mM DTT, 26 °C"}, "purified protein [3]": {"substrate": "NCCC[C@H](N)C(=O)O", "test": "purified protein", "details": "50 mM HEPES pH 7.7, 100 mM NaCl, 20 μM PLP, 1 mM DTT, 26 °C"}, "purified protein [4]": {"substrate": "NCCCC[C@H](N)C(=O)O", "test": "purified protein", "details": "50 mM HEPES pH 7.7, 100 mM NaCl, 20 μM PLP, 1 mM DTT, 26 °C"}}}
{"molecule": "NCCC[C@H](N)C(=O)O", "note": "[L-ornithine]", "values": [{"measurement": "Km", "setting": "[1]", "result": "650 ± 30", "unit": "µM"}, {"measurement": "Km", "setting": "C. botulinum ODC (aODC)", "result": "600 ± 30", "unit": "µM"}]}
{"molecule": "NCCCC[C@H](N)C(=O)O", "note": "[L-lysine]", "values": [{"measurement": "Km", "setting": "[1]", "result": "4000 ± 1700", "unit": "µM"}, {"measurement": "Km", "setting": "C. botulinum ODC (aODC)", "result": "2000 ± 90", "unit": "µM"}]}
{"molecule": "N=C(N)NCCC[C@H](N)C(=O)O", "note": "[L-arginine]", "values": [{"measurement": "Km", "setting": "[1]", "result": "19000 ± 2300", "unit": "µM"}, {"measurement": "Km", "setting": "C. botulinum ODC (aODC)", "result": "3800 ± 250", "unit": "µM"}, {"measurement": "Km", "setting": "B. cihuensis ADC", "result": "450 ± 10", "unit": "µM"}]}
{"molecule": "B1", "values": [{"measurement": "Km", "setting": "purified protein [2]", "result": "540 ± 40", "unit": "µM"}, {"measurement": "kcat", "setting": "purified protein [2]", "result": "0.04 ± 0.002", "unit": "s⁻¹"}, {"measurement": "kcat/Km", "setting": "purified protein [2]", "result": "82 ± 3.2", "unit": "M⁻¹ s⁻¹"}, {"measurement": "Km", "setting": "purified protein [3]", "result": "180 ± 10", "unit": "µM"}, {"measurement": "kcat", "setting": "purified protein [3]", "result": 0.11, "unit": "s⁻¹"}, {"measurement": "kcat/Km", "setting": "purified protein [3]", "result": 590, "unit": "M⁻¹ s⁻¹"}]}
{"molecule": "B2", "values": [{"measurement": "Km", "setting": "purified protein [4]", "result": "370 ± 70", "unit": "µM"}, {"measurement": "kcat", "setting": "purified protein [4]", "result": 0.25, "unit": "s⁻¹"}, {"measurement": "kcat/Km", "setting": "purified protein [4]", "result": 700, "unit": "M⁻¹ s⁻¹"}, {"measurement": "Km", "setting": "purified protein [3]", "result": "28000 ± 7200", "unit": "µM"}, {"measurement": "kcat", "setting": "purified protein [3]", "result": 0.17, "unit": "s⁻¹"}, {"measurement": "kcat/Km", "setting": "purified protein [3]", "result": 4.2, "unit": "M⁻¹ s⁻¹"}]}
{"molecule": "B3", "values": [{"measurement": "Km", "setting": "purified protein [2]", "result": "210 ± 20", "unit": "µM"}, {"measurement": "kcat", "setting": "purified protein [2]", "result": 0.3, "unit": "s⁻¹"}, {"measurement": "kcat/Km", "setting": "purified protein [2]", "result": 1400, "unit": "M⁻¹ s⁻¹"}, {"measurement": "Km", "setting": "purified protein [4]", "result": "6600 ± 1300", "unit": "µM"}, {"measurement": "kcat", "setting": "purified protein [4]", "result": 0.06, "unit": "s⁻¹"}, {"measurement": "kcat/Km", "setting": "purified protein [4]", "result": 9.5, "unit": "M⁻¹ s⁻¹"}]}
{"molecule": "B4", "values": [{"measurement": "Km", "setting": "purified protein [2]", "result": "130 ± 10", "unit": "µM"}, {"measurement": "kcat", "setting": "purified protein [2]", "result": 0.05, "unit": "s⁻¹"}, {"measurement": "kcat/Km", "setting": "purified protein [2]", "result": 410, "unit": "M⁻¹ s⁻¹"}]}
{"molecule": "B5", "values": [{"measurement": "Km", "setting": "purified protein [2]", "result": "650 ± 60", "unit": "µM"}]}
